Data published in PMC10500007 (2023).
Where a chain is given by its changes, count along the chain named.

Legend:
αIIbβ3 = αIIbβ3 (Homo sapiens); experiment: BLI
αvβ3 = target: T1, αvβ3 (Homo sapiens); experiment: BLI
T1 chain 1: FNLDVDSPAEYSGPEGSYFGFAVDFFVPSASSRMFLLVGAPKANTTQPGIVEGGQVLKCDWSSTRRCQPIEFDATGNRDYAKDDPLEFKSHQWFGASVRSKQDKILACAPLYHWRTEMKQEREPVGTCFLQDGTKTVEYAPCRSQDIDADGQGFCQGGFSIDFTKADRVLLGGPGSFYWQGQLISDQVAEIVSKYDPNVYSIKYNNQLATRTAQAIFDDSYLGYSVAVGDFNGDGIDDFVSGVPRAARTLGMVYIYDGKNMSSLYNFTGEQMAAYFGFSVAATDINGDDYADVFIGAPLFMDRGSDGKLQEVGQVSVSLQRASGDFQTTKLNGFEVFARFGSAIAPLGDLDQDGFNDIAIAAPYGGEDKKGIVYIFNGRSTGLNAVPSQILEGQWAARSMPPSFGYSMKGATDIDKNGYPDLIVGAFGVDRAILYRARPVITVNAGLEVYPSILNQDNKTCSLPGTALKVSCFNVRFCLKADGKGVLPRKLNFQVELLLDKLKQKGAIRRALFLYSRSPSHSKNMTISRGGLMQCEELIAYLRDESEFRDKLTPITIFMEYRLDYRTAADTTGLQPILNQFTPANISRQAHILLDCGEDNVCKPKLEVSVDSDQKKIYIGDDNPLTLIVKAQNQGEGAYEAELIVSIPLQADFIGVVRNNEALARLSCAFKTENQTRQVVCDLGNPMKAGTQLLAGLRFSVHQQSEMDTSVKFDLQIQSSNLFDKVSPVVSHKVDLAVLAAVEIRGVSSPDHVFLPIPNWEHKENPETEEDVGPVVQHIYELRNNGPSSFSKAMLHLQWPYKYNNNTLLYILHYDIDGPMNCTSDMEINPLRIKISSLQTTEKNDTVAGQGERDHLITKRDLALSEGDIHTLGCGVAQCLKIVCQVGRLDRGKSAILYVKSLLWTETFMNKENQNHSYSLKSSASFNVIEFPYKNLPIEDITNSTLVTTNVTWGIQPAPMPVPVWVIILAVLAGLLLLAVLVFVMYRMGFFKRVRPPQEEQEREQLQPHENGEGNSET
T1 chain 2: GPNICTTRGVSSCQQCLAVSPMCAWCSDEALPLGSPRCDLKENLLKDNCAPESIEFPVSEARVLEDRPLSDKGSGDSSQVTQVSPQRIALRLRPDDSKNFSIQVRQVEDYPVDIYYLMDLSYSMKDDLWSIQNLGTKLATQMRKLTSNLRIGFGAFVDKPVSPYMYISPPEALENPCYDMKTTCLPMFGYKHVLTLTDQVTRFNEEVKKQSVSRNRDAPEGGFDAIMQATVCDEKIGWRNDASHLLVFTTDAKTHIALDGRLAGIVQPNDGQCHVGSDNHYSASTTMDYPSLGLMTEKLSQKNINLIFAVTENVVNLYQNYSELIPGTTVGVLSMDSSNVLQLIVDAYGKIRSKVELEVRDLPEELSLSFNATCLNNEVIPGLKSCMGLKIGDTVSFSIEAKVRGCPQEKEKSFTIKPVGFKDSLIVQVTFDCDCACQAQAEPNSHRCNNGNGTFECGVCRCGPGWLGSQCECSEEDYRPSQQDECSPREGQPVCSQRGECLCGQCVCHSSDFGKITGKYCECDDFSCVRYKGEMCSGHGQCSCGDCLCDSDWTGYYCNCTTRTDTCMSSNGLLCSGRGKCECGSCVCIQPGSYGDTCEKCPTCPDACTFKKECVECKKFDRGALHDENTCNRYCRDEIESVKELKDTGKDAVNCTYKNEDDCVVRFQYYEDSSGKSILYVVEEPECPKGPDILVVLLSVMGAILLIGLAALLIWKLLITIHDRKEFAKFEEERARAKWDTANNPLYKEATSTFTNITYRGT

α8β1 = α8β1 (Homo sapiens); experiment: BLI
α5β1 = α5β1 (Homo sapiens); experiment: BLI
αvβ5 = target: T2, αvβ5 (Homo sapiens); experiment: BLI
T2 chain 1: T1 chain 1
T2 chain 2: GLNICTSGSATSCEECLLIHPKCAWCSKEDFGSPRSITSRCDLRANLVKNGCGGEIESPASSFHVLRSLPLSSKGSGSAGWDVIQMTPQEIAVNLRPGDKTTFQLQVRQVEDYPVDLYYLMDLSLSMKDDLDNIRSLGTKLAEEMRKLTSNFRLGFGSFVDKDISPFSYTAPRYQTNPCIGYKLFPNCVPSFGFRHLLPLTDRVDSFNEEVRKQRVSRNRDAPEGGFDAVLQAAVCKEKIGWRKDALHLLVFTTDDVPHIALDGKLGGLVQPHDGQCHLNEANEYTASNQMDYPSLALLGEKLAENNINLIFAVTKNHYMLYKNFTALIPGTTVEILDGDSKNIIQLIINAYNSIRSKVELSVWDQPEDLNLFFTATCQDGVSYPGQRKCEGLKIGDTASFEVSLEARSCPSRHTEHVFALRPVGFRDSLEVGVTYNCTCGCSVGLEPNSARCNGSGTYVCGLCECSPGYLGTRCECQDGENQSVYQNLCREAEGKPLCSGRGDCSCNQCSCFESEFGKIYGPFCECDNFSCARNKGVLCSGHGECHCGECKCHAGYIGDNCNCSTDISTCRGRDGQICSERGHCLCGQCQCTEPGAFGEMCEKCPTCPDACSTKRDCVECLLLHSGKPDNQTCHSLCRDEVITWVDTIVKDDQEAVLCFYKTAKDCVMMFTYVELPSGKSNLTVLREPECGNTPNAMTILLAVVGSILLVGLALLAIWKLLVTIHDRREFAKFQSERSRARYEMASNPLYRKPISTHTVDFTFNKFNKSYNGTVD

αvβ1 = αvβ1 (Homo sapiens); experiment: BLI
[1] = target: recombinant human integrin αvβ8 headpiece (Expi293F) (human, UniProt P06756); experiment: ELISA; competition with hLAP1
[2] = target: T3, human integrin αvβ6 (soluble, construct not stated) (human, UniProt P06756 31-1048; P18564 22-709); experiment: BLI
T3 chain 1: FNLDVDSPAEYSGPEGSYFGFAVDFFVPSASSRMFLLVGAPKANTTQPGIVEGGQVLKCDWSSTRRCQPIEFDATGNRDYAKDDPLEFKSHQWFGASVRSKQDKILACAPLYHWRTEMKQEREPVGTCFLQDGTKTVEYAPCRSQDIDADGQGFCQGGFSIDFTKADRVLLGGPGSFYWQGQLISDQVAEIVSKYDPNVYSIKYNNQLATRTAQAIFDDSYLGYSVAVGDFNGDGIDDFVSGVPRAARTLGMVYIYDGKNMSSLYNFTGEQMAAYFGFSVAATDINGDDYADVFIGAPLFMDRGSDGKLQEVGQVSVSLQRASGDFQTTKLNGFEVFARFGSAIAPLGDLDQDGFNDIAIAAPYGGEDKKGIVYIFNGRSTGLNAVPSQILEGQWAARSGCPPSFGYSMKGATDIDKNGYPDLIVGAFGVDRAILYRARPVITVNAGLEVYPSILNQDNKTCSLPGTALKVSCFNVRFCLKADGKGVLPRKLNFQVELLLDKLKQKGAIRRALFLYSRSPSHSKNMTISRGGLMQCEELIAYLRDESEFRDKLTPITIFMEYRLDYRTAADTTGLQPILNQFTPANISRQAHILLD
T3 chain 2: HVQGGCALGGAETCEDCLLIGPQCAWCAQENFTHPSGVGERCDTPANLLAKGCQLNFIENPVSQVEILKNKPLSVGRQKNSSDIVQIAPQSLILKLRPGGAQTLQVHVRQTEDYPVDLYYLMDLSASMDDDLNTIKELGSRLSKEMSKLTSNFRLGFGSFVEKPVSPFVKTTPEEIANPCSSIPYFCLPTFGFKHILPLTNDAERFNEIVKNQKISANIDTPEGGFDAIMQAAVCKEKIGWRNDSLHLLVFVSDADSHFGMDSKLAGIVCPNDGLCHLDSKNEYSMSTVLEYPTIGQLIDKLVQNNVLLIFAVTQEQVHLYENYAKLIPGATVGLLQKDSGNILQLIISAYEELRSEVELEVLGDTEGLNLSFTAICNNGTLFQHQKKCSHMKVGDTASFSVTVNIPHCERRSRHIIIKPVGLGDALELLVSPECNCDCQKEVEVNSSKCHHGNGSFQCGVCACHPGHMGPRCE

[3] = target: T4, human integrin αvβ8 (soluble, construct not stated) (human, UniProt P06756 31-1048; P26012 43-684); experiment: BLI
T4 chain 1: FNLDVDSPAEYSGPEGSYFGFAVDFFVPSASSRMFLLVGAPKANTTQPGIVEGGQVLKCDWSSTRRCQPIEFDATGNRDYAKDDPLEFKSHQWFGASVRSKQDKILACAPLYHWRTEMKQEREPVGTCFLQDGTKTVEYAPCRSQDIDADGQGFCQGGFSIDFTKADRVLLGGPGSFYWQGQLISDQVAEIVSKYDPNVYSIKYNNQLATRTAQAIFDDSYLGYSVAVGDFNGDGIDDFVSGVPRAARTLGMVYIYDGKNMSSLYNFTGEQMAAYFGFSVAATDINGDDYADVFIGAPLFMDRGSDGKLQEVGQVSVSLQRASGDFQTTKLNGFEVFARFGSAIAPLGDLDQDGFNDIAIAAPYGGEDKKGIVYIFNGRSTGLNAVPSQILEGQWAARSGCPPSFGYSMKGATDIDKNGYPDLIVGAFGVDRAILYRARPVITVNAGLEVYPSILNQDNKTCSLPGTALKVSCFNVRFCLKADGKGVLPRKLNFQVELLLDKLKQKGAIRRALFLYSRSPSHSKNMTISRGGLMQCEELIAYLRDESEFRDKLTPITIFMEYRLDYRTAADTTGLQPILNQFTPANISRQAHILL
T4 chain 2: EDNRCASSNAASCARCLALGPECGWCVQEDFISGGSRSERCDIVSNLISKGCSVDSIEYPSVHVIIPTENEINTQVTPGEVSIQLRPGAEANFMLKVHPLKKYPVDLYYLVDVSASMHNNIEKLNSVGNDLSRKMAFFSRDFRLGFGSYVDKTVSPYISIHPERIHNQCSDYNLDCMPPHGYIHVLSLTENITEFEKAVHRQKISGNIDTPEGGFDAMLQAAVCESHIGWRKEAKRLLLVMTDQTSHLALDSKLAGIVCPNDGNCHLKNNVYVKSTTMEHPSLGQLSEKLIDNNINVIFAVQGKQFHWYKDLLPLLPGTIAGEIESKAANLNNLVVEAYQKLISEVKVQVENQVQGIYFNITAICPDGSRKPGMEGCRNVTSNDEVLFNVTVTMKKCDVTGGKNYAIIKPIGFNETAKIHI

[4] = target: recombinant human integrin αvβ6 headpiece (Expi293F) (human, UniProt P06756 31-429; P18564 130-371, I287C); experiment: ELISA; competition with hLAP1

Chain of α8β1 (Homo sapiens) (chain, as listed by the source, chain 1 of 2): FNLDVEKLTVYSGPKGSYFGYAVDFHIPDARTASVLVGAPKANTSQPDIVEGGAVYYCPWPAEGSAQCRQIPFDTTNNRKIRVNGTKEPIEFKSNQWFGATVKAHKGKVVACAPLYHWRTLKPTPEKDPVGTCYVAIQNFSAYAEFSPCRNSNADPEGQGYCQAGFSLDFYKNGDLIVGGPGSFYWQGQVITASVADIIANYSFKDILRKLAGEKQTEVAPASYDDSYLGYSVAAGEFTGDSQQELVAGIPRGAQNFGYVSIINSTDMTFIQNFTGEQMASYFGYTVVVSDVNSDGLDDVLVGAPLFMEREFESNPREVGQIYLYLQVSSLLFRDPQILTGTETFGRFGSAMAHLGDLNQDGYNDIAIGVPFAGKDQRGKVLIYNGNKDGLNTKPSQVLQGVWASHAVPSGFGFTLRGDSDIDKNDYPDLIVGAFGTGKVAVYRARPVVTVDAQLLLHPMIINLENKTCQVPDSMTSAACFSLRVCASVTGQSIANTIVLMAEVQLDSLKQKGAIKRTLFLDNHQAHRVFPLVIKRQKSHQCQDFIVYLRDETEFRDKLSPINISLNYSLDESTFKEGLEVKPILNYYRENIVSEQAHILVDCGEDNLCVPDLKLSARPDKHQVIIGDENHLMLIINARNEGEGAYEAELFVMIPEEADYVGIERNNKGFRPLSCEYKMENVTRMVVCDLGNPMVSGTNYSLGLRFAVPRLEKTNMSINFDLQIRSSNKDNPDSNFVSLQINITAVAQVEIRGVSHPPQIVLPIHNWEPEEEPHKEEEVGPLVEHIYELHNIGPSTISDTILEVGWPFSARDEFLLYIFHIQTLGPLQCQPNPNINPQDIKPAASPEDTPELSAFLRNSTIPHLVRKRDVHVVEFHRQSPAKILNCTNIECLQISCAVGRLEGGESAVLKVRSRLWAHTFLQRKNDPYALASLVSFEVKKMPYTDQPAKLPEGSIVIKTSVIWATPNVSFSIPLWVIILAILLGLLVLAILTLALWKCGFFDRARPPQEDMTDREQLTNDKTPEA
Chain of α8β1 (Homo sapiens) (chain, as listed by the source, chain 2 of 2): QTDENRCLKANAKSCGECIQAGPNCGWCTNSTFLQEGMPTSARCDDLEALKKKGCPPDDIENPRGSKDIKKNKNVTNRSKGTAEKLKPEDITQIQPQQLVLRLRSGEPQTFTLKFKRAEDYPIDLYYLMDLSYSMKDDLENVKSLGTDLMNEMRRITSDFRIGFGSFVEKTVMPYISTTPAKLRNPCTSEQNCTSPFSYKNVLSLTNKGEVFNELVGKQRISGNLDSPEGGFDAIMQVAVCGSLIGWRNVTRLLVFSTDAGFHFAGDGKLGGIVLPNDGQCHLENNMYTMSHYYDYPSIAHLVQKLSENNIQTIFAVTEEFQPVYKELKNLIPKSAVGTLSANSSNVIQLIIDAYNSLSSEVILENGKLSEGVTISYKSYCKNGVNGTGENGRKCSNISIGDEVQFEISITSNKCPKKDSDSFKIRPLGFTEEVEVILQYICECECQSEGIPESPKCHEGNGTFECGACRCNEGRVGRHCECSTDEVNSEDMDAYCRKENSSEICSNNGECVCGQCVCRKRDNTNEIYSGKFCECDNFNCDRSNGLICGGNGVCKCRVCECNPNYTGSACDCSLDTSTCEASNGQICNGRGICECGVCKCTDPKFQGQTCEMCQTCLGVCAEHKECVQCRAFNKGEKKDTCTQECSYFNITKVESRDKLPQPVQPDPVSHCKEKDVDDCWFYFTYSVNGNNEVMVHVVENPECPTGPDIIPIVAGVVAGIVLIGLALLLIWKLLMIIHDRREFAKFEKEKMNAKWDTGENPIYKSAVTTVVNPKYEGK
Chain of α5β1 (Homo sapiens) (chain, as listed by the source, chain 1 of 2): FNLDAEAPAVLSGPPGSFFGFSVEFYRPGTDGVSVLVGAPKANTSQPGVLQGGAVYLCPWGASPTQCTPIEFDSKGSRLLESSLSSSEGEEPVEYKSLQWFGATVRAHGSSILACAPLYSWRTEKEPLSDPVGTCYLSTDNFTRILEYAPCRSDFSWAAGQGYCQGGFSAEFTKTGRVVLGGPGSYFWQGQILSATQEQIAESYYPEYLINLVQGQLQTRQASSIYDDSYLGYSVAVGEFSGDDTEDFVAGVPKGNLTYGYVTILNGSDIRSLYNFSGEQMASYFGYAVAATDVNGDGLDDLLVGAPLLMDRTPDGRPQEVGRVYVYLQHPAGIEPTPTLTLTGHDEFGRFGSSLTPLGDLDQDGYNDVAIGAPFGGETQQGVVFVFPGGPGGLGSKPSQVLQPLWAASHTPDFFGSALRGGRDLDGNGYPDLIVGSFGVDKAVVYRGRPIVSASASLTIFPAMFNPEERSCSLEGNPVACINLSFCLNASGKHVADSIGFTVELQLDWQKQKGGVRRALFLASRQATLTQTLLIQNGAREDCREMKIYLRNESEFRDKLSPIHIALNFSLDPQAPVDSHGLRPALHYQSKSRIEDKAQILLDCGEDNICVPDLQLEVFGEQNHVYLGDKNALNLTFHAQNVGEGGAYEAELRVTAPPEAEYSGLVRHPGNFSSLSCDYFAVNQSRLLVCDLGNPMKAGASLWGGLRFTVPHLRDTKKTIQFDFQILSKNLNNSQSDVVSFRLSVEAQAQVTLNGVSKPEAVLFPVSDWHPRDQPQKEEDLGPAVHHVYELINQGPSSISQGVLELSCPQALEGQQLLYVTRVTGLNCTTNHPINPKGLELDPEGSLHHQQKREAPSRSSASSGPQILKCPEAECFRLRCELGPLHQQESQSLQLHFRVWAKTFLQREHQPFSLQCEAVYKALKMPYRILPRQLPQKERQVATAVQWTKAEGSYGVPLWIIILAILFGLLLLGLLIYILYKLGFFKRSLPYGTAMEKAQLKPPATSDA
Chain of α5β1 (Homo sapiens) (chain, as listed by the source, chain 2 of 2): as the sequence (chain, as listed by the source, chain 2 of 2) above
Chain of αvβ1 (Homo sapiens) (chain, as listed by the source, chain 2 of 2, one chain of several): as the sequence (chain, as listed by the source, chain 2 of 2) above
Chain of recombinant human integrin αvβ8 headpiece (Expi293F) (P06756 whole entry, looked up): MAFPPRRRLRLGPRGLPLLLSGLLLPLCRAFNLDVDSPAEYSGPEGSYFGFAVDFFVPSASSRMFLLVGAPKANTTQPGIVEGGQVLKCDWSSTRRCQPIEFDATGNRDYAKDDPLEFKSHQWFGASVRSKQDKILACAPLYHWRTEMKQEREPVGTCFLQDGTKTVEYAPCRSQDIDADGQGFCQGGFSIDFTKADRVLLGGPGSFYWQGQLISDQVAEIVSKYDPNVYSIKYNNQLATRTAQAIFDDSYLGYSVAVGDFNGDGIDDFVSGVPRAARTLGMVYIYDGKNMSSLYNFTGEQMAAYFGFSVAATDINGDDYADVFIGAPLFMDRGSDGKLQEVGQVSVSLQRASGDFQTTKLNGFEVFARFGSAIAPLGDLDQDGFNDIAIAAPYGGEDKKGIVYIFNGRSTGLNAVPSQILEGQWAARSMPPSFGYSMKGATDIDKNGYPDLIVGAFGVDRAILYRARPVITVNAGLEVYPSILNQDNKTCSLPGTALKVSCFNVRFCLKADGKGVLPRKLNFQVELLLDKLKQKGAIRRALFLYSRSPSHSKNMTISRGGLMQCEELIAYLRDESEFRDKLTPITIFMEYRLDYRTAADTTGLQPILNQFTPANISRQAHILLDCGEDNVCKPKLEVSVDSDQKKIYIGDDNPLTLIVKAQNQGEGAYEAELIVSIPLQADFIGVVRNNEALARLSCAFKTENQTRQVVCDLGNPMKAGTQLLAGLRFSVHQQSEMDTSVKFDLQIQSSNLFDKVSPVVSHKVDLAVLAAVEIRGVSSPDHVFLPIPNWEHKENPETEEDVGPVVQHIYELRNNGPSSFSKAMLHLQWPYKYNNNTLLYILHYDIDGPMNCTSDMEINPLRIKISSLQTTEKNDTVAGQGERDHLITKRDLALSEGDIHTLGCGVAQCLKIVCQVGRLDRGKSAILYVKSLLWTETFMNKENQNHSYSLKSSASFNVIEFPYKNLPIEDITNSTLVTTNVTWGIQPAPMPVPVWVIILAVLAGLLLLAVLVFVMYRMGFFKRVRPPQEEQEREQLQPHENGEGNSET

B1: B6_BP_dslf (designed binder)
chain: TKCVVRFVFRGDLAELMLRAVKDHLKKEGPHWNITSTNNGKELVVRGIHESDAKRIAKWVEKRFPRVHTETQCD
modifications: full-length mature chains taken as on K562 cells; soluble ectodomain possible for BLI; divalent cations, glycosylated
Kd (αIIbβ3): > 0.2 µM | Kd (αvβ3): > 0.2 µM | Kd (α8β1): > 0.2 µM | Kd (α5β1): > 0.2 µM | Kd (αvβ5): > 0.2 µM | Kd (αvβ1): > 0.2 µM

B2: B6_BP_dslf (designed binder)
chain: B1 chain
IC50 [1]: ~0.08 µM | Kd [2]: 0.00011 µM | Kd [3]: 0.58 µM

B3: MAVI (protein)
chain: TKCVVRFNFRGDMAVIALKAVKDHLKKEGPHWNITTHNDDEVYLVVRGIHESDAKRIAKWVESTIPGISVETQCD
modifications: N/C-terminal disulfide staple (Cys3-Cys74); B8_BP_dslf with MAVY motif changed to MAVI
Kd [2]: 0.0012 µM

B4: B8_BP_dslf (designed binder)
chain: B3 chain with I16Y
IC50 [4]: > 0.5 µM | Kd [2]: > 1 µM

B5: B8_BP-LATY (designed binder)
chain: B3 chain with M13L, V15T, I16Y
Kd [2]: > 0.5 µM

B6: MATI (protein)
chain: B3 chain with V15T
modifications: N/C-terminal disulfide staple (Cys3-Cys74); B8_BP_dslf with MAVY motif changed to MATI
Kd [2]: 0.0012 µM

B7: B8_BP-LATY (designed binder)
chain: B3 chain with M13L, V15T, I16Y
modifications: full-length mature chains taken as on K562 cells; soluble ectodomain possible for BLI; divalent cations, glycosylated
Kd (αIIbβ3): > 1 µM | Kd (αvβ3): > 1 µM | Kd (α8β1): > 1 µM | Kd (α5β1): > 1 µM | Kd (αvβ5): > 1 µM | Kd (αvβ1): > 1 µM
